Among the data in doi:10.1101/2022.04.29.490036 are percent of particles in the monomeric class and stoichiometry N values, retold here.

This experiment deals with S. lophii 70 S ribosome (Spraguea lophii (endogenous in spores)). The experiment can be described thus: cryo-EM structure.

A word on the stoichiometry N: it is the number of molecules, sites or subunits per partner or assembly.

S. lophii 70 S ribosome (complex) returned a percent of particles in the monomeric class of 1.6% and a stoichiometry N of 2.
